Assay [1] has as its target T1, CD40-Fc protein (Sino-Biological), biotinylated (Homo sapiens (Human), UniProt P25942 21-193, biotinylated in the lab (sites not given) when used for capture).
T1 construct: Bought; also called CD40-biotin; not shown: Fc of the purchased CD40-Fc
The assay is described as follows: Octet (BLI); G4P-PDL1 held on captured hPDL1-His, then CD40-Fc 100nM. A general note: Biolayer interferometry detects binding as a change in optical thickness at a sensor tip.

The target in assay [2] is T2, human CD40 on the cell surface (CD40 transfected HEK293 cells, Ramos human B cells, other CD40-bearing cells) (human, UniProt P25942 21-277).
T2 construct: the transfected construct is not described further
The assay is described as follows: flow cytometry, Alexa 647 conjugate on CD40 transfected 293 cells. A general note: A flow cytometer gives signals particle by particle.

T2 sequence (P25942 21-277 limits assumed): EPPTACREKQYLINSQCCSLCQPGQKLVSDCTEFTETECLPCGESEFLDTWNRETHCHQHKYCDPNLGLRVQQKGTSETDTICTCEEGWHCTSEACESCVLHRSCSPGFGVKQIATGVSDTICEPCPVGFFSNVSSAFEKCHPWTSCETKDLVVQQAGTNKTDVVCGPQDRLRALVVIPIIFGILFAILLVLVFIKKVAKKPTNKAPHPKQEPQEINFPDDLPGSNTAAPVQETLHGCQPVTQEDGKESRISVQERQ
T1 sequence (P25942 21-193): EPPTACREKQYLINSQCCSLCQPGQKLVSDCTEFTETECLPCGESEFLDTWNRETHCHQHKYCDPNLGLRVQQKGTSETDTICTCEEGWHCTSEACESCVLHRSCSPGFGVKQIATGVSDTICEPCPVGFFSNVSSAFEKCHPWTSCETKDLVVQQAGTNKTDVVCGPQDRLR

B1: anti-PDL1 (MEDI4736) in human IgG4 isotype (antibody, V domains shown)
VH: EVQLVESGGGLVQPGGSLRLSCAASGFTFSRYWMSWVRQAPGKGLEWVANIKQDGSEKYYVDSVKGRFTISRDNAKNSLYLQMNSLRAEDTAVYYCAREGGWFGELAFDYWGQGTLVTVSS
VL: EIVLTQSPGTLSLSPGERATLSCRASQRVSSSYLAWYQQKPGQAPRLLIYDASSRATGIPDRFSGSGSGTDFTLTISRLEPEDFAVYYCQQYGSLPWTFGQGTKVEIKR
notes: Human IgG4 (228P) format of MEDI4736; also called MEDI4736 IgG4; anti-PD-L1 (MED4736)
Consider B1, for which the binding result in assay [1] is reported as “no binding (tested: 100 nM CD40-Fc)”; in assay [2], “no binding (tested: about 4x10^4 pM)”.
